Results reported in PMC8393326 (2021).

Key:
Assay in all cases: ITC
HTLV3 Tax = HTLV3 Tax (Human T-cell leukemia virus 3)
Erbin PDZ binder = molecular target: T1, Erbin PDZ binder
T1 chain: TGWETWV

HTLV1 Tax = molecular target: T2, HTLV1 Tax (Human T-cell leukemia virus 1)
T2 chain: FRETEV

ERBB4 = molecular target: T3, ERBB4 (Homo sapiens)
T3 chain: HRNTVV

AdV E4 ORF1 = AdV E4 ORF1 (Human adenovirus)

B1: Erbin-PDZ PDZ (protein)
chain: AKQEIRVRVEKDPELGFSISGGVGGRGNPFRPDDDGIFVTRVQPEGPASKLLQPGDKIIQANGYSFINIEHGQAVSLLKTFQNTVELIIVREVSS
Kd (HTLV3 Tax): 23 µM
Kd (Erbin PDZ binder): 0.24 µM
Kd (HTLV1 Tax): 7.8 µM

B2: PSD95-PDZ3 302-415 (protein)
chain: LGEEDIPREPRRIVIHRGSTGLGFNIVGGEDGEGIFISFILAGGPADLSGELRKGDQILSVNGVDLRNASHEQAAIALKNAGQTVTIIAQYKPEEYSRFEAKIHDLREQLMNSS
Kd (HTLV3 Tax): 43 µM
Kd (ERBB4): 41.6 µM
Kd (HTLV1 Tax): 3.8 µM

B3: PSD95-PDZ2 155-249 (protein)
chain: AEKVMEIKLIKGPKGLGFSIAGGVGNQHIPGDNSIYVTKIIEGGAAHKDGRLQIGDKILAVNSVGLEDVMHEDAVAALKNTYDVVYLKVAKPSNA
Kd (HTLV3 Tax): 20 µM
Kd (AdV E4 ORF1): 11.5 µM
Kd (Erbin PDZ binder): 5.7 µM
Kd (ERBB4): 13.9 µM
Kd (HTLV1 Tax): 1.5 µM
